What was measured:
[1] = tested on: human CD3 (Jurkat cells); assay: FACS titration of anti-CD3 antibodies on Jurkat cells; type: binding; conditions: anti-CD3 antibody
Description: See, e.g. FACS binding experiments outlined in Example 12 and in PCT/US2016/044732 filed Jul. 29, 2016.

[2] = tested on: Jurkat cells (express human CD3); assay: FACS binding titration of STEAP2xCD3 bispecifics on Jurkat cells; conditions: 66.6 nM to 0.001 nM, 30 minutes at 4° C.
Protocol: (§1) FACS Binding Titration on Jurkat Cells, PC3_STEAP2/1 Cells and cynomolgus T Cells: Flow cytometric analysis was utilized to determine binding of STEAP2×CD3 bispecific antibodies to Jurkat, PC3_STEAP2/1 chimeric and cynomolgus T cells, followed by detection with a phycoerythrin (PE)-labeled anti-human IgG antibody. Briefly, 2×10^5 cells/well were incubated for 30 minutes at 4° C. with a serial dilution of STEAP2×CD3 bispecific antibodies or control antibody (a human IgG1 antibody that binds a feline antigen with no cross-reactivity to STEAP2 or human or cynomolgus CD3) ranging from 66.6 nM to 0.001 nM. After incubation, the cells were washed twice with cold PBS containing 1% filtered FBS and a PE-conjugated anti-human secondary antibody was added to the cells and incubated for an additional 30 minutes. Wells containing no antibody or secondary antibody only were used as a control. After incubation, cells were washed, re-suspended in 200 μL cold PBS containing 1% filtered FBS and analyzed by flow cytometry on a BD FACS Canto II.

[3] = tested on: PC3_STEAP2/1 cells (PC3 engineered to express a STEAP2/1 chimeric construct); assay: FACS binding titration of STEAP2xCD3 bispecifics on PC3_STEAP2/1 cells; parameters: species or system human; conditions: 66.6 nM to 0.001 nM, 30 minutes at 4° C.
Protocol: as §1

[4] = tested on: cynomolgus T cells; assay: FACS binding titration of STEAP2xCD3 bispecifics on cynomolgus T cells; conditions: 66.6 nM to 0.001 nM, 30 minutes at 4° C.
Protocol: as §1

[5] = tested on: human PBMCs; assay: T cell proliferation assay, human PBMC; type: cell-based; conditions: with anti-CD28 200 ng/mL, 72 hours; read-out: hPBMC Proliferation [M] (EC50)
Protocol: (§2) Thawed human or freshly isolated monkey PBMCs (50,000 cells/well) were incubated with 3-fold (human, concentration range: 5E-10M to 2.82E-15M; cynomolgus, concentration range: 1E-09M to 4.57E-13M) serial dilutions of STEAP2×CD3 bispecifics or isotype control in complete medium (RPMI supplemented with 10% FBS, 100 U/mL penicillin, 100 μg/mL streptomycin, 292 μg/mL L-glutamine) and a fixed concentration (human: 200 ng/mL, cyno: 500 ng/mL) of a commercial anti-CD28 antibody (Biolegend, Catalog #302914) in white flat bottom 96-well plates for 72 hours at 37° C. Isolated monkey PBMCs were from two donors (identified as mk8781M or mk9381M). Following incubation, CellTiter Glo® (Promega, Cat #7573) was added and luminescence, as readout for cell viability, was measured using a VICTOR X5 multi-label plate reader. Cell titer was calculated by dividing the luminescence of stimulated cells by the baseline luminescence of unstimulated cells.
All αSTEAP2×αCD3 bispecific antibodies induce human PBMC proliferation in the presence of a co-stimulatory anti-CD28 antibody (See Table 20 and FIG. 9). PBMCs were incubated with a serial dilution of bispecific antibodies or the control antibody and a fixed concentration of anti-CD28 for 72 hours, and cell viability was measured in a luminescence assay to detect live cells. […]

[6] = tested on: monkey PBMCs; assay: T cell proliferation assay, cynomolgus PBMC; type: cell-based; conditions: donor mk8781M; anti-CD28 500 ng/mL, 72 hours; read-out: Cyno PBMC Proliferation [M] (donor)
Protocol: as §2

B1: CD3-VH-G: anti-CD3 antibody engineered from CD3-VH-P to contain only germline frameworks, HCVR SEQ ID NO: 1730 (antibody, V domains shown)
VH: EVQLVESGGGLVQPGRSLRLSCAASGFTFDDYSMHWVRQAPGKGLEWVSGISWNSGSKGYADSVKGRFTISRDNAKNSLYLQMNSLRAEDTALYYCAKYGSGYGKFYHYGLDVWGQGTTVTVSS
VL: DIQMTQSPSSLSASVGDSVTITCRASQSINNYLNWYQQKPGKAPKLLIYTASSLLSGVPSRFSGSGSGTDFTLTISGLHPEDFATYFCQQSFSTPPITFGQGTRLDIK
- EC50, FACS titration of Jurkat cells (human CD3) [1]: retained their binding affinity

B2: BSSTEAP2/CD3-010: STEAP2×CD3 bispecific: anti-STEAP2 H1H7809N (SEQ 330), anti-CD3 H1H7198P (SEQ 1466), common LCVR of H1H7809N (antibody, V domains shown)
VH 1: QVQLVESGGGVVQPGRSLGLSCAASGFTFSSYGMHWVRQAPGKGLEWVAVIWYDGSNKYYVDSVKGRFTISRDNSKNTLYLQMNSLRAEDTAVYYCAREGLRFLENYYYYYGMDVWGQGTTVTVSS
VH 2: EVQLVESGGGLVQPGRSLRLSCAASGFTFADYTMHWVRQVPGKGLEWVSDISWNSGSKDYADSVKGRFTISRDNAKNFLYLQMNSLRAEDTALYYCVKYGSGYGKFYFYAMDVWGQGTTVTVSS
VL: EIVLTQSPGTLSLSPGERATLSCRASQSISSTYLAWYQQRPGQAPRLLIYGASSRATGIPDRFSGSGSGTDFTLTISRLEPEDFAVYYCQQYGTSPYTFGQGTKLEIK
- EC50 [2]: 13600 pM
- FACS PC3_STEAP2/1 EC50 [M] [3]: No Binding
- Cynomolgus T cells EC50 [M] [4]: Very Weak
- EC50 [5]: 6.55e-12 M

B3: BSSTEAP2/CD3-011: STEAP2×CD3 bispecific: anti-STEAP2 H1H7809N (SEQ 330), anti-CD3 H1H7203P (SEQ 1474), common LCVR of H1H7809N (antibody, V domains shown)
VH 1: QVQLVESGGGVVQPGRSLGLSCAASGFTFSSYGMHWVRQAPGKGLEWVAVIWYDGSNKYYVDSVKGRFTISRDNSKNTLYLQMNSLRAEDTAVYYCAREGLRFLENYYYYYGMDVWGQGTTVTVSS
VH 2: EVQLVQSGGGLVQPGRSLRLSCAASGFTFADYTMHWVRQTPGKGLEWVSGISWNSGSKDYADSVKGRFTISRDNAKNSLYLQMNSLRTEDTALYYCAKYGSGYGRYFFYAMDVWGQGTTVTVSS
VL: EIVLTQSPGTLSLSPGERATLSCRASQSISSTYLAWYQQRPGQAPRLLIYGASSRATGIPDRFSGSGSGTDFTLTISRLEPEDFAVYYCQQYGTSPYTFGQGTKLEIK
- FACS PC3_STEAP2/1 EC50 [M] [3]: No Binding
- Cynomolgus T cells EC50 [M] [4]: No Binding
- EC50 [6]: 3.6e-12 M
